Measurements from the supplement of paper PMC12764529.
± gives the half width of the 95% confidence interval.

Assays:
[1] = folding stability dG unfold from chymotrypsin proteolysis; higher = more stable
How it was run: (§1)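 K50 was inferred by Bayesian fitting of sequencing counts obtained after protease digestion of designed mini-proteins. Unfolding free energy was derived by comparison with a sequence-predicted unfolded-state K50 and a shared folded-state K50, for each protease or both combined. The mini-proteins were under 80 residues, had no cysteine, were carried in a PA-tagged cDNA display construct, and were kept only if AlphaFold2 dimer inter-PAE exceeded 15.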

[2] = folding stability dG unfold (combined trypsin and chymotrypsin); higher = more stable
How it was run: as §1

[3] = folding stability dG unfold from trypsin proteolysis; higher = more stable
How it was run: as §1

Sequence | folding stability dG unfold [1] [kcal/mol] | folding stability dG unfold [2] [kcal/mol] | folding stability dG unfold [3] [kcal/mol]
SAGGSPPFRIKIDEIEILPNGIIQVTFKIDNGWPMTILIQMDPDGKVTIEIQFPGNGQPFEFELPISAGGSA [r2_361_TrROS] | 3.52 ± 0.07 | 3.27 ± 0.23 | 2.56 ± 0.14
SAGGSPPLPLKITKITDTRYERNPDGQGWVKIEIRLPENGKPITIPVQADSPEQAEYAVKEALKKFSAGGSA [r2_248_TrROS] | -0.424 ± 0.56 | -0.31 ± 0.36 | -0.315 ± 0.16
SAGGSPSMSPEELAKREKERILEELRKKGGSKTIPMKVEITVPDEKGNTTKYNIEINITVEVPEDKLSAGGS [r16_550_JUSTAS] | 1.31 ± 0.1 | 0.974 ± 0.15 | 0.622 ± 0.082
SAGGSPVLKVEVFELEEDKLLLKIYFPKEEAGLTPEQKEALAKAIQELFPNTKAFTTDEELYIVVDSAGGSA [r2_256_TrMRF] | 2.38 ± 0.15 | 2.37 ± 0.12 | 2.06 ± 0.075
SAGGSPVVLTKSPDGLLYVVTLTDPANSLDRVKAKVTAYDPNKPVPLGELTIELDPKTGKAVSALSSAGGSA [r2_324_JUSTAS] | 0.488 ± 0.089 | 0.21 ± 0.093 | -0.543 ± 0.097
SAGGSPWIFVIKIEWEPRDPDGKKKKYEYSIVITATPNQLDELLEQIKKAPPGYKIKEVKIEVFPFSAGGSA [r2_75_TrROS] | 4.21 ± 0.086 | 3.82 ± 0.21 | 2.65 ± 0.18
SAGGSQLDEYRKKVEEAIEKAKAEGKPVEKIELTGSEEVAKEVREWLEEQGIPKSVKVTVTPPAINESAGGS [r16_164_JUSTAS] | 1.13 ± 0.015 | 0.83 ± 0.077 | 0.433 ± 0.04
SAGGSSESKTVTAPDGRVLEFTKSLDPTSSNSRYTLTVYAPESGEPLREAEFSSEEEAEKYIAEGLGSAGGS [r8_450_JUSTAS] | 0.487 ± 0.072 | 0.331 ± 0.068 | -0.0113 ± 0.067
SAGGSSFTGTVTPVKVDPVNPDLVTVATTLTWPDGTTVPLTRTIPRSVYDSLPENISISVTLSPPSSAGGSA [r2_128_JUSTAS] | 1.33 ± 0.1 | 0.942 ± 0.1 | -0.0475 ± 0.15
SAGGSSGSMSPVLSLFEPGTGVVTYLLKKNDKLYLLVSTGSPGVPPVPSSVSPANLAAGDPVWATAGSAGGS [r16_809_JUSTAS] | 0.77 ± 0.13 | 0.353 ± 0.1 | -0.924 ± 0.26
SAGGSSIKVTITDKNGNEYEIEIPSSLSLEEAKEKVKEYLEKKGYKVESITVENLPPGEAEIKVLKSAGGSA [r2_148_JUSTAS] | 0.465 ± 0.21 | 0.423 ± 0.29 | 0.0509 ± 0.059
SAGGSSITVPYPEGYEITVEVFPNYATITTKTPSSTLTKTVSFSTPVTVKTPSDKPVTINVPSPEVSAGGSA [r2_57_JUSTAS] | 0.533 ± 0.12 | 0.436 ± 0.18 | 0.303 ± 0.034
SAGGSSKLTFKDPNSDGTYSVTYDPSTGKANVTTSNGSSATISFEGDTITLLESSSVPPSPSNPTTSSAGGS [r16_687_JUSTAS] | 0.252 ± 0.093 | 0.243 ± 0.09 | 0.123 ± 0.047
SAGGSSLTTPDGVKVEVYENPENNTIYVFEKKPDGTYTLKTLTKEGDKVTEVSTKTIKSNEKEKLLSAGGSA [r2_336_JUSTAS] | 1.81 ± 0.081 | 1.52 ± 0.069 | 0.966 ± 0.029
SAGGSSMINLTITITVKDPSTGKVTTIPLNKKLTPEEIEELVKEIIEKIEKENPDKPIEVLKVEINSAGGSA [r2_59_JUSTAS] | 2.48 ± 0.12 | 2.81 ± 0.25 | 3.4 ± 0.21
SAGGSSMPLEVTEVKKIGDKIVITLRVPPSVGPLSLGLTIELKSKPVTITSTFDPSTTTATIEVGLSAGGSA [r2_261_JUSTAS] | 3.43 ± 0.18 | 3.25 ± 0.17 | 2.88 ± 0.1
SAGGSSMQTTVFILPGPEVPVEEVKAKIAKELGLDFETVTFIPAPSREEAEALAAALGVDGIIVEVDSAGGS [r8_245_JUSTAS] | 2.662 ± 0.013 | 2.58 ± 0.052 | 2.43 ± 0.053
SAGGSSMVDIKPGLVTEIRVETLPNGERVYVVEIPLENGERAVVKISEKFKSEEEKLKAIYEAVSKSAGGSA [r2_347_JUSTAS] | 2.47 ± 0.039 | 2.24 ± 0.12 | 1.71 ± 0.05
SAGGSSPASVRTSQTTVTDPATGRTRSVTVTTLPDGTTVSTFDSPGGSLVTTTTTPDGTTTTVTADSAGGSA [r2_109_JUSTAS] | 1.38 ± 0.022 | 1.05 ± 0.066 | -0.0855 ± 0.13
SAGGSSPEELAEKAINEAMEKFGFKEISEIKIQKEDDGVRITIRMPNNGYTIEIDYEDGKITEIQPWSAGGS [r16_171_TrROS] | 0.23 ± 0.2 | 1.1 ± 0.083 | 1.53 ± 0.051
SAGGSSPLLLTSSPTPLTLPDGGTVTLTTTRVPGDNADVVTITTTPPGTGTTTVTTLPASTAAATLSAGGSA [r2_366_JUSTAS] | 0.603 ± 0.12 | 1.15 ± 0.068 | 1.47 ± 0.034

Sequence | folding stability dG unfold [1] [kcal/mol] | folding stability dG unfold [2] [kcal/mol] | folding stability dG unfold [3] [kcal/mol]
SAGGSSPLLSPVTLTREVPASEPMAPEEVEAFAAAVAAEVAAAGMTVDFSVERHPDREVLTVTVTVASSAGG [r13_442_JUSTAS] | 0.678 ± 0.046 | 0.373 ± 0.056 | -0.372 ± 0.1
SAGGSSPWLERALEEARELMKNDPPGKEVEAKVKVPYPTPDGQQQPMKFRIRMTYKNNKIKEIEITSAGGSA [r2_173_TrROS] | 0.518 ± 0.25 | 0.823 ± 0.17 | 0.91 ± 0.11
SAGGSSSLSGLKNVTEEPRLAPDSDEEEVLITYENGYLERREPGVLEFYDPENGKVLSKKNVPYHHSAGGSA [r2_374_JUSTAS] | -0.0765 ± 0.3 | -0.326 ± 0.3 | -0.806 ± 0.35
SAGGSSSSMVVVTLTFPPDVSPEEVIEKIAATPGVGAQPISYDPATGTFTIRVGSTDPKAVEEVLGSAGGSA [r2_305_JUSTAS] | 0.562 ± 0.17 | 0.748 ± 0.074 | 0.878 ± 0.022
SAGGSSVLINHTKTFSSEEEAEKEAEELKEKAKKEGFDEVKVEISKDPSGGTYTLKVTIKKKLPPDLKSAGG [r19_92_JUSTAS] | 3.21 ± 0.072 | 2.87 ± 0.26 | 1.96 ± 0.078
SAGGSSVTTTVSEETLPDGLRLLTTTTTTTTVPGKPDLRITTVTTTALDPVTGETTAVGTSTTVVAPSAGGS [r8_65_JUSTAS] | 0.796 ± 0.027 | 0.63 ± 0.086 | 0.311 ± 0.038
SAGGSSYSVAQSPGPARLYSVPQPDGRVVEVDVEELPGGLLRVRVPDDPVPRLFPASLSLADIVSLSAGGSA [r2_338_JUSTAS] | 0.933 ± 0.046 | 0.866 ± 0.032 | 0.644 ± 0.02
SAGGSTIENPNGWRIEIDIIPIKVVYRKDPNGKPKEPVAPPVWIIHIKIEFPDKNGEKKEATFMLFSAGGSA [r2_218_TrROS] | 4.61 ± 0.056 | 4.06 ± 0.13 | 2.62 ± 0.069
SAGGSTLEEIKAAVIKAAEAGEKEAEIEAPLPDGGKLRILKGGVIEFIPEDGVPKRLKISVSEIKVSAGGSA [r2_97_TrMRF] | 0.451 ± 0.36 | 0.0476 ± 0.26 | -1.2 ± 0.75
SAGGSTVAKKTTEKDPNSDTTTVTITFPETGVKLTVTVPPGGETTVTLNNGSPPTTLTLPLSVLKLLSAGGS [r8_238_JUSTAS] | 0.87 ± 0.067 | 0.612 ± 0.077 | 0.192 ± 0.077
SAGGSVDVSYDPSTGVVTVTIPSPTGSIGEEEVERVARELKEKYPNVTVSFTPSPGPAVTVTITIPGGSAGG [r13_291_JUSTAS] | 2.24 ± 0.042 | 2.08 ± 0.074 | 1.71 ± 0.07
SAGGSVEEIAERLAKELAPPDERVEVEVEEIVTDPVVGKIKEVKIKATIYPPDGTTRTVEYTIPYDELSAGG [r13_215_JUSTAS] | 0.704 ± 0.028 | 0.612 ± 0.056 | 0.407 ± 0.029
SAGGSVEVTKTESKGPGGTVTVEALKTVTKFDEKGNPVKEEEVRITRTETYDPNTGKVTTTTTVEGSAGGSA [r2_220_JUSTAS] | 0.709 ± 0.018 | 0.487 ± 0.067 | -0.0891 ± 0.061
SAGGSVFESEKDLRVEVYKIKVGTTLGKEKNGKPKKPKFKEKEVLVVKVEVPLEDGTTLSAEFTFGSAGGSA [r2_218_TrMRF] | 3.24 ± 0.073 | 2.52 ± 0.26 | 1.25 ± 0.13
SAGGSVKQIALRIARDMGYPNVKVEEIPIEKTPNGWVQIPITVEHPKDGKPIGPFQIHIRPGDPIVSAGGSA [r2_137_TrROS] | 0.602 ± 0.27 | 0.731 ± 0.29 | 1.17 ± 0.24
SAGGSVPERAKVVTLVLRFEEPESLGIPLLERLLRELGFPDAVLGEVRIEPLPDGSVVAVVPLLVPSAGGSA [r2_346_TrMRF] | 3.196 ± 0.02 | 2.91 ± 0.059 | 2.42 ± 0.041
SAGGSVTLSAEFTLPDGSRVRLTVEVLPDGTLRVSAEVEAVPLVPPVRVSRLPDGSLVSDPLGVPLVLSAGG [r13_151_TrMRF] | 1.31 ± 0.11 | 1.57 ± 0.15 | 1.82 ± 0.046
SAGGSWRVSVQFPDGKKIKIPEEPIQKIIQEYGIPPDPGDPERMVERIANRIADKYGYPVKNIEIDSAGGSA [r2_83_TrROS] | 0.385 ± 0.13 | 0.0663 ± 0.15 | -0.377 ± 0.42
SAGGSWTIDIDPEKVKEVEHKRNPNGMNEHRLELPNKNGKKREVKIPMGMKSPEDALDEIRELLGKSAGGSA [r2_347_TrROS] | 0.663 ± 0.32 | 0.331 ± 0.39 | 0.167 ± 0.25
SAGGTAEEIVEALKEAGIPVLSIEPNSDGTYTITVGGPDGTPFTIEISSANPADLAALKEAIPEEVSSAGGS [r16_821_TrMRF] | 4.01 ± 0.072 | 3.86 ± 0.12 | 3.35 ± 0.22
SAGGTIFIPWEEAEEFIENAFENGEDIEIEFFLDDGWWYKFTITGPDIDLRVVEVVPMPPPPEDPGKKSAGG [r13_839_TrROS] | 2.82 ± 0.042 | 2.34 ± 0.11 | 0.836 ± 0.056
